Reference: patent US20240117065A1

Key:
Test in all cases: cell-based or functional assay
[1] = biological target: Catalytically active mouse CD73 (biochemical assay) (mouse) (UniProt Q61503)
[2] = biological target: Membrane-bound mouse CD73 (internalisation assay) (mouse) (UniProt Q61503)
[3] = biological target: Soluble CD73 in MDA-MB-231 cells (UniProt P21589)
[4] = biological target: Catalytically active human CD73 (biochemical assay) (human) (UniProt P21589)
[5] = biological target: Membrane-bound CD73 in MDA-MB-231 cells (UniProt P21589)
[6] = biological target: Membrane-bound human CD73 (internalisation assay) (human) (UniProt P21589)

Row | Substance | % Inhibition of CD73 (biochemical assay), Mouse [1] [%] | % internalisation of membrane-bound CD73, Mouse [2] [%] | Murine % Inh, n = 1 (receptor internalisation assay) [2] [%] | Murine % Inh, n = 2 (receptor internalisation assay) [2] [%] | % Inhibition of CD73 (cell-based assay), soluble [3] [%] | % Inhibition of CD73 (biochemical assay), Human [4] [%] | % Inhibition of CD73 (cell-based assay), Membrane-bound [5] [%] | Max % Act Mean [5] [%] | Max % Act n = 1 [5] [%] | Max % Act n = 2 [5] [%] | % internalisation of membrane-bound CD73, Human [6] [%] | Human % Inh, n = 1 (receptor internalisation assay) [6] [%] | Human % Inh, n = 2 (receptor internalisation assay) [6] [%]
1 | BMS-986179 (antibody) | 21.3 | 7.14 | 5.18 | 9.09 | 10.4 | 20 | 29.9 | 31 | 30 | 32 | 61.7 | 8.99 | 61.7
2 | IPH53 (antibody) | 17.8 | 6.46 | 5.18 | 7.74 | 77.1 | 91.3 | 68.2 | 68.8 | 69.5 | 68 | 47.5 | 49 | 46
3 | IgG1K (antibody) |  |  |  |  |  |  |  | 3.5 |  | 3.5 |  |  | 
4 | MEDI9447 (antibody) | 49.1 | 70.9 | 62.5 | 79.4 | 40 | 42.3 | 42 | 41.8 | 35.5 | 48 | 58 | 49.9 | 66.2
